# Data: publication PMC3792052, “Structural Analysis of Intermolecular Interactions in the Kinesin Adaptor Complex Fasciculation and Elongation Protein Zeta 1/ Short Coiled-Coil Protein (FEZ1/SCOCO)” (PLoS ONE, 2013)
# B1: 6xHis-FEZ1 (1-392) (natural protein, human, UniProt Q99689 1-392, looked up)
# chain: MEAPLVSLDEEFEDLRPSCSEDPEEKPQCFYGSSPHHLEDPSLSELENFSSEIISFKSMEDLVNEFDEKLNVCFRNYNAKTENLAPVKNQLQIQEEEETLQDEEVWDALTDNYIPSLSEDWRDPNIEALNGNCSDTEIHEKEEEEFNEKSENDSGINEEPLLTADQVIEEIEEMMQNSPDPEEEEEVLEEEDGGETSSQADSVLLQEMQALTQTFNNNWSYEGLRHMSGSELTELLDQVEGAIRDFSEELVQQLARRDELEFEKEVKNSFITVLIEVQNKQKEQRELMKKRRKEKGLSLQSSRIEKGNQMPLKRFSMEGISNILQSGIRQTFGSSGTDKQYLNTVIPYEKKASPPSVEDLQMLTNILFAMKEDNEKVPTLLTDYILKVLCPT
# notes: Predicted mass of the tagged protein printed as 48.8 KDa; also called fasciculation and elongation protein zeta 1; source: for SAXS cells lysed together with GST-SCOCO cells and co-purified (HiTrap chelating, then GST-Trap)
# Assays:
# [1] = target: 6xHis-FEZ1 (1-392) (human) (UniProt Q99689); experiment: SAXS; complex formed by lysing the two E. coli pellets together, two-step co-affinity purification (6xHis, then GST); purified complex at 1.10 and 0.34 mg/mL in PBS, 20 °C; mass from I(0) against BSA
# [2] = target: the molecule itself; experiment: as above
molecule,measurement,setting,value
GST-SCOCO (2-82) (natural protein),stoichiometry N (GST-SCOCO per 6xHis-FEZ1 (2:2)),[1],1
B1,stoichiometry N,[2],2
